From patent CN113683697A (SHANGHAI XIANGYAO BIOTECHNOLOGY CO LTD, dated 2021)

How the values were obtained:
[1] = molecular target: T1, B7-H3 (4Ig-B7-H3) endogenously expressed on MDA-MB-231 cells (UniProt Q5ZPR3 29-534, limits assumed); assay: FACS, MDA-MB-231 cells
T1 construct: whole, on cells; also called 细胞表面的B7-H3抗原
T1 sequence (looked up): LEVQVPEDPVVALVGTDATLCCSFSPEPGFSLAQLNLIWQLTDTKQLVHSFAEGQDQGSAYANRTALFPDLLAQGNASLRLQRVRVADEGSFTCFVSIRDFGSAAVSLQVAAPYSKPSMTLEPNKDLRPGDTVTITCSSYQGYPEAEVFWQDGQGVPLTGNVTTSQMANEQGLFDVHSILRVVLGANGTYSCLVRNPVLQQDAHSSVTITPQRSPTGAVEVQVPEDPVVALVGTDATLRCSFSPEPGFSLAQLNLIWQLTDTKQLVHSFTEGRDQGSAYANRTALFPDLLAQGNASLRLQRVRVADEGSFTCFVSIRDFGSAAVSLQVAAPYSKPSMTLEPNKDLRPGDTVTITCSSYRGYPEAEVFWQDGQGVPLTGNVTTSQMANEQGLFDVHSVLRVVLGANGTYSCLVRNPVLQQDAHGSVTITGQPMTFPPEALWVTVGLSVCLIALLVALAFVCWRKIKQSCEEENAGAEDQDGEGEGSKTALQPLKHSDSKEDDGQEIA

[2] = molecular target: T2, 人B7-H3变体1(4Ig-B7-H3) on stable cells 293-h4Ig-B7-H3-copGFP (human, UniProt Q5ZPR3 29-534); assay: FACS, 293-h4Ig-B7-H3-copGFP stable cells
T2 construct: Full-length CDS cloned in pCDH-EF1-T2A-copGFP and expressed on stably transduced cells; residues left by T2A cleavage not described
T2 sequence: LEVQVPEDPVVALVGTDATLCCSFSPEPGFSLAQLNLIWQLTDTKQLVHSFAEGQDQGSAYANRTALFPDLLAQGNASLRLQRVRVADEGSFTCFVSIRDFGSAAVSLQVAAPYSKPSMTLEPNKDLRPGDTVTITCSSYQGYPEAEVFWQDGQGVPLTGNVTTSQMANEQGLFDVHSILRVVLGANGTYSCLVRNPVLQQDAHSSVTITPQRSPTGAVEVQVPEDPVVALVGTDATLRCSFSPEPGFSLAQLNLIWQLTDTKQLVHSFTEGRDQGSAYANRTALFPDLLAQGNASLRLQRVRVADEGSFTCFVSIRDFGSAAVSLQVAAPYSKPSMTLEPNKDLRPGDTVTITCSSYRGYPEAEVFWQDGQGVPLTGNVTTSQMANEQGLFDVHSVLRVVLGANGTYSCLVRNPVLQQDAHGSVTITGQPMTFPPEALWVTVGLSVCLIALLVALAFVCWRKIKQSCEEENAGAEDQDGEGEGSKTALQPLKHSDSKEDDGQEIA

B1: scFv-27B4-H4-L1 (scFv)
scFv: EVQLVQSGAEVKKPGESLKISCKASGYTFTTYWIGWVRQMPGKGLEWMGIIYPGDGGSRYSPSFQGQVTISADKSISTAYLQWSSLKASDTAMYYCARGGNYISFPMYYWGQGTLVTVSSGGGGSGGGGSGGGGSGGGGASDIQMTQSPSSLSASMGDRVTITCKASRGVSTALNWYQQKPGKAPKLLIYWASSLQSGVPSRFSGSGSGTDFTLTISSLQPEDFATYYCQQHYDTPYTFGQGTKLEIK
notes: VH-linker-VL in phage display vector pXY, expressed in TG1, purified on a nickel column
Does B1 bind [1]?
Result: binds

Does B1 bind [2]?
Result: binds

B2: scFv-27B4-H4-L2 (scFv)
scFv: EVQLVQSGAEVKKPGESLKISCKASGYTFTTYWIGWVRQMPGKGLEWMGIIYPGDGGSRYSPSFQGQVTISADKSISTAYLQWSSLKASDTAMYYCARGGNYISFPMYYWGQGTLVTVSSGGGGSGGGGSGGGGSGGGGASVIWMTQSPSLLSASTGDRVTISCKASRGVSTALAWYQQKPGKAPELLIYWASTLQSGVPSRFSGSGSGTDFTLTISCLQSEDFATYYCQQHYDTPYTFGQGTKLEIK
notes: Expressed from phage display vector pXY in TG1, purified on a nickel column
Does B2 bind [1]?
Result: binds

Does B2 bind [2]?
Result: binds

B3: scFv-27B4-H2-L2 (scFv)
scFv: QVQLVQSGAEVKKPGSSVKVSCKASGYTFTTYWISWVRQAPGQGLEWMGGIYPGDGGSNYAQKFQGRVTITADESTSTAYMELSSLRSEDTAVYYCARGGNYISFPMYYWGQGTLVTVSSGGGGSGGGGSGGGGSGGGGASVIWMTQSPSLLSASTGDRVTISCKASRGVSTALAWYQQKPGKAPELLIYWASTLQSGVPSRFSGSGSGTDFTLTISCLQSEDFATYYCQQHYDTPYTFGQGTKLEIK
notes: as for B2
Does B3 bind [1]?
Result: binds

Does B3 bind [2]?
Result: binds

B4: scFv-27B4-H1-L3 (scFv)
scFv: QVQLVQSGAEVKKPGASVKVSCKASGYTFTTYWMHWVRQAPGQGLEWMGIIYPGDGGSSYAQKFQGRVTMTRDTSTSTVYMELSSLRSEDTAVYYCARGGNYISFPMYYWGQGTLVTVSSGGGGSGGGGSGGGGSGGGGASEIVMTQSPATLSVSPGERATLSCKASRGVSTALAWYQQKPGQAPRLLIYWASTRATGIPARFSGSGSGTEFTLTISSLQSEDFAVYYCQQHYDTPYTFGQGTKLEIK
notes: as for B1
Does B4 bind [1]?
Result: binds

Does B4 bind [2]?
Result: binds

B5: scFv-27B4-H2-L3 (scFv)
scFv: QVQLVQSGAEVKKPGSSVKVSCKASGYTFTTYWISWVRQAPGQGLEWMGGIYPGDGGSNYAQKFQGRVTITADESTSTAYMELSSLRSEDTAVYYCARGGNYISFPMYYWGQGTLVTVSSGGGGSGGGGSGGGGSGGGGASEIVMTQSPATLSVSPGERATLSCKASRGVSTALAWYQQKPGQAPRLLIYWASTRATGIPARFSGSGSGTEFTLTISSLQSEDFAVYYCQQHYDTPYTFGQGTKLEIK
notes: as for B2
Does B5 bind [1]?
Result: binds

Does B5 bind [2]?
Result: binds

B6: scFv-27B4-H1-L4 (scFv)
scFv: QVQLVQSGAEVKKPGASVKVSCKASGYTFTTYWMHWVRQAPGQGLEWMGIIYPGDGGSSYAQKFQGRVTMTRDTSTSTVYMELSSLRSEDTAVYYCARGGNYISFPMYYWGQGTLVTVSSGGGGSGGGGSGGGGSGGGGASEIVLTQSPDFQSVTPKEKVTITCKASRGVSTALHWYQQKPDQSPKLLIKWASQSFSGVPSRFSGSGSGTDFTLTINSLEAEDAATYYCQQHYDTPYTFGQGTKLEIK
notes: as for B1
What does the source list for B6?
binding result [1]: binds; binding result [2]: binds

B7: scFv-27B4-H2-L4 (scFv)
scFv: QVQLVQSGAEVKKPGSSVKVSCKASGYTFTTYWISWVRQAPGQGLEWMGGIYPGDGGSNYAQKFQGRVTITADESTSTAYMELSSLRSEDTAVYYCARGGNYISFPMYYWGQGTLVTVSSGGGGSGGGGSGGGGSGGGGASEIVLTQSPDFQSVTPKEKVTITCKASRGVSTALHWYQQKPDQSPKLLIKWASQSFSGVPSRFSGSGSGTDFTLTINSLEAEDAATYYCQQHYDTPYTFGQGTKLEIK
notes: as for B1
Does B7 bind [1]?
Result: binds

Does B7 bind [2]?
Result: binds

B8: scFv-27B4-H3-L3 (scFv)
scFv: QVQLVQSGSELKKPGASVKVSCKASGYTFTTYWMNWVRQAPGQGLEWMGWIYPGDGGSTYAQGFTGRFVFSLDTSVSTAYLQICSLKAEDTAVYYCARGGNYISFPMYYWGQGTLVTVSSGGGGSGGGGSGGGGSGGGGASEIVMTQSPATLSVSPGERATLSCKASRGVSTALAWYQQKPGQAPRLLIYWASTRATGIPARFSGSGSGTEFTLTISSLQSEDFAVYYCQQHYDTPYTFGQGTKLEIK
notes: as for B1
Does B8 bind [1]?
Result: binds

Does B8 bind [2]?
Result: binds

B9: scFv-27B4-H1-L1 (scFv)
scFv: QVQLVQSGAEVKKPGASVKVSCKASGYTFTTYWMHWVRQAPGQGLEWMGIIYPGDGGSSYAQKFQGRVTMTRDTSTSTVYMELSSLRSEDTAVYYCARGGNYISFPMYYWGQGTLVTVSSGGGGSGGGGSGGGGSGGGGASDIQMTQSPSSLSASMGDRVTITCKASRGVSTALNWYQQKPGKAPKLLIYWASSLQSGVPSRFSGSGSGTDFTLTISSLQPEDFATYYCQQHYDTPYTFGQGTKLEIK
notes: as for B1
Does B9 bind [1]?
Result: binds

Does B9 bind [2]?
Result: binds

B10: scFv-27B4-H2-L1 (scFv)
scFv: QVQLVQSGAEVKKPGSSVKVSCKASGYTFTTYWISWVRQAPGQGLEWMGGIYPGDGGSNYAQKFQGRVTITADESTSTAYMELSSLRSEDTAVYYCARGGNYISFPMYYWGQGTLVTVSSGGGGSGGGGSGGGGSGGGGASDIQMTQSPSSLSASMGDRVTITCKASRGVSTALNWYQQKPGKAPKLLIYWASSLQSGVPSRFSGSGSGTDFTLTISSLQPEDFATYYCQQHYDTPYTFGQGTKLEIK
notes: as for B1
Does B10 bind [1]?
Result: binds

Does B10 bind [2]?
Result: binds

B11: scFv-27B4-H1-L2 (scFv)
scFv: QVQLVQSGAEVKKPGASVKVSCKASGYTFTTYWMHWVRQAPGQGLEWMGIIYPGDGGSSYAQKFQGRVTMTRDTSTSTVYMELSSLRSEDTAVYYCARGGNYISFPMYYWGQGTLVTVSSGGGGSGGGGSGGGGSGGGGASVIWMTQSPSLLSASTGDRVTISCKASRGVSTALAWYQQKPGKAPELLIYWASTLQSGVPSRFSGSGSGTDFTLTISCLQSEDFATYYCQQHYDTPYTFGQGTKLEIK
notes: as for B1
Does B11 bind [1]?
Result: binds

Does B11 bind [2]?
Result: binds

B12: scFv-27B4-H3-L5 (scFv)
scFv: QVQLVQSGSELKKPGASVKVSCKASGYTFTTYWMNWVRQAPGQGLEWMGWIYPGDGGSTYAQGFTGRFVFSLDTSVSTAYLQICSLKAEDTAVYYCARGGNYISFPMYYWGQGTLVTVSSGGGGSGGGGSGGGGSGGGGASDIVMTQTPLSLSVTPGQPASISCKASRGVSTALYWYLQKPGQPPQLLIYWASNRFSGVPDRFSGSGSGTDFTLKISRVEAEDVGVYYCQQHYDTPYTFGQGTKLEIK
notes: as for B1
Which results are given for B12?
binding result [1]: binds; binding result [2]: binds

B13: scFv-27B4-H1-L5 (scFv)
scFv: QVQLVQSGAEVKKPGASVKVSCKASGYTFTTYWMHWVRQAPGQGLEWMGIIYPGDGGSSYAQKFQGRVTMTRDTSTSTVYMELSSLRSEDTAVYYCARGGNYISFPMYYWGQGTLVTVSSGGGGSGGGGSGGGGSGGGGASDIVMTQTPLSLSVTPGQPASISCKASRGVSTALYWYLQKPGQPPQLLIYWASNRFSGVPDRFSGSGSGTDFTLKISRVEAEDVGVYYCQQHYDTPYTFGQGTKLEIK
notes: as for B1
Does B13 bind [1]?
Result: binds

Does B13 bind [2]?
Result: binds

B14: scFv-27B4-H2-L5 (scFv)
scFv: QVQLVQSGAEVKKPGSSVKVSCKASGYTFTTYWISWVRQAPGQGLEWMGGIYPGDGGSNYAQKFQGRVTITADESTSTAYMELSSLRSEDTAVYYCARGGNYISFPMYYWGQGTLVTVSSGGGGSGGGGSGGGGSGGGGASDIVMTQTPLSLSVTPGQPASISCKASRGVSTALYWYLQKPGQPPQLLIYWASNRFSGVPDRFSGSGSGTDFTLKISRVEAEDVGVYYCQQHYDTPYTFGQGTKLEIK
notes: as for B1
Does B14 bind [1]?
Result: binds

Does B14 bind [2]?
Result: binds

B15: scFv-27B4-H3-L1 (scFv)
scFv: QVQLVQSGSELKKPGASVKVSCKASGYTFTTYWMNWVRQAPGQGLEWMGWIYPGDGGSTYAQGFTGRFVFSLDTSVSTAYLQICSLKAEDTAVYYCARGGNYISFPMYYWGQGTLVTVSSGGGGSGGGGSGGGGSGGGGASDIQMTQSPSSLSASMGDRVTITCKASRGVSTALNWYQQKPGKAPKLLIYWASSLQSGVPSRFSGSGSGTDFTLTISSLQPEDFATYYCQQHYDTPYTFGQGTKLEIK
notes: as for B1
Does B15 bind [1]?
Result: binds

Does B15 bind [2]?
Result: binds

B16: scFv-27B4-H3-L2 (scFv)
scFv: QVQLVQSGSELKKPGASVKVSCKASGYTFTTYWMNWVRQAPGQGLEWMGWIYPGDGGSTYAQGFTGRFVFSLDTSVSTAYLQICSLKAEDTAVYYCARGGNYISFPMYYWGQGTLVTVSSGGGGSGGGGSGGGGSGGGGASVIWMTQSPSLLSASTGDRVTISCKASRGVSTALAWYQQKPGKAPELLIYWASTLQSGVPSRFSGSGSGTDFTLTISCLQSEDFATYYCQQHYDTPYTFGQGTKLEIK
notes: as for B1
Does B16 bind [1]?
Result: binds

Does B16 bind [2]?
Result: binds

B17: scFv-27B4-H3-L4 (scFv)
scFv: QVQLVQSGSELKKPGASVKVSCKASGYTFTTYWMNWVRQAPGQGLEWMGWIYPGDGGSTYAQGFTGRFVFSLDTSVSTAYLQICSLKAEDTAVYYCARGGNYISFPMYYWGQGTLVTVSSGGGGSGGGGSGGGGSGGGGASEIVLTQSPDFQSVTPKEKVTITCKASRGVSTALHWYQQKPDQSPKLLIKWASQSFSGVPSRFSGSGSGTDFTLTINSLEAEDAATYYCQQHYDTPYTFGQGTKLEIK
notes: as for B1
Which results are given for B17?
binding result [1]: binds; binding result [2]: binds
